In paper PMC2768541 (Journal of molecular biology, 2009) one finds Kd data, which are given here for four molecules.

Experiment [1] deals with TRTK12 (CapZ peptide) TRTK12 (Homo sapiens) (UniProt P52907). To be noted: cited from earlier work.
Experiment [2] addresses T1, S100A1 (Rattus norvegicus, UniProt P35467).
T1 sequence (P35467 2-94 limits assumed): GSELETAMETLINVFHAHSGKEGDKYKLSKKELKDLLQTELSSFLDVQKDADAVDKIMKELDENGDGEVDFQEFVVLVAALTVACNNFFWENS
To be noted: read-out: KD of S100A1 for RyRP12; ref [36]; [47]; cited from earlier work.

The target in experiment [3] is RyRP12 RyRP12 (UniProt P21817). To be noted: cited from earlier work.
Experiment [4] deals with T2, TRTK12 (CapZ alpha subunit peptide) (not fully specified).
T2 chain: Ac-TRTKIDWNKILS-NH2

Experiment [5] deals with T3, TAMRA-TRTK12 (CapZ alpha subunit peptide) (not fully specified).
T3 chain: {TAMRA}-TRTKIDWNKILS-NH2
The experiment can be described thus: fluorescence anisotropy. (Fluorescence polarisation rises when a labelled molecule tumbles more slowly, as on binding a larger partner.)

As for S100B (from UniProt P04631), the Kd – broadly, the equilibrium constant for the complex coming apart – in experiment [1] was 7 µM. With KKAVWHKLLSKQ [RyRP12], in experiment [2], the Kd is 8 µM.

Take S100A1 (from UniProt P35467): in experiment [3], the Kd was 8 µM.

B1: S100A1 (protein)
chain: MGSELETAMETLINVFHAHSGKEGDKYKLSKKELKDLLQTELSSFLDVQKDADAVDKIMKELDENGDGEVDFQEFVVLVAALTVACNNFFWENS
In the case of B1, the results for the Kd in experiment [4] and in experiment [5] were 23 µM and 1 µM, respectively.
